The target of the experiment is Vibrio cholerae DdmD (Vibrio cholerae). In words: SEC-MALS.

As for Vibrio cholerae DdmD (enzyme), the stoichiometry N – broadly, the number of molecules, sites or subunits per partner or assembly – stood at 2.

These data come from publication doi:10.1101/2024.05.10.593530.
